Data on four molecules can be found in patent publication US20220144940A1 (VIELA BIO, published 2022).

“And” between values parts separate entries of the source, which are not always exact repeats. Equal entries are not always repeated.

Experiment [1] concerns the target T1, human ILT7 (human, UniProt P59901 24-499).
T1 construct: whole, on cells; also called LIRA4; LILRA4
Description: FACS on CHO cells expressing recombinant human ILT7.

The target in experiment [2] is T2, HA-tagged human ILT7 on CT-550 cells (human, UniProt P59901 24-499).
T2 construct: whole, on cells; CT-550 cells: CT-125 cells (2B4 murine T-cell hybridoma with mouse FcεRIγ and NFAT-GFP reporter) transduced with HA-tagged human ILT7; also called human ILT7-expressing cells; not shown: HA tag
T2 sequence (P59901 24-499): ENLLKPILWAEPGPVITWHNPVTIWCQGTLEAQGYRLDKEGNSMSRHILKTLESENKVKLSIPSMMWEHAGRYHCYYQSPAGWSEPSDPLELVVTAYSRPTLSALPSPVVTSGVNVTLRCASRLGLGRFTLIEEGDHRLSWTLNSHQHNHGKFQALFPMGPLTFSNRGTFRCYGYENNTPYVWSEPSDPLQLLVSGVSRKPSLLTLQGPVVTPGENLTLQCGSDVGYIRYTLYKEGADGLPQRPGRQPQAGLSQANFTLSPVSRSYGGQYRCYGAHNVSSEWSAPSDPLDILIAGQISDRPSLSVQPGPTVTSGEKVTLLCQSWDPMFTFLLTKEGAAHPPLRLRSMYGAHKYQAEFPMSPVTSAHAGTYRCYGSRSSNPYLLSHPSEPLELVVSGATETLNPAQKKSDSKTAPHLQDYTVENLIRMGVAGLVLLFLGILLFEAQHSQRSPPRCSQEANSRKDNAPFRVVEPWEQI
Description: flow cytometry on CT-550 cells expressing human ILT7, anti-human IgG DyLight 649 detection; table 'Mean Ec50 (nM)', n = 2. Here is the method: (§1) Binding of anti-ILT7 variants and isotype controls on human and cynomolgus ILT7 was assessed by flow cytometry analysis using CT-550 and cynoILT7 CT-125 cells respectively. CT-125 cells were used as control. Cells were resuspended in Blocking Buffer (PBS supplemented with 10% FBS) at a concentration of 5 million cells per mL and transferred into a round-bottom 96-well plates (BD Falcon™ Clear Microtest Plate, BD Biosciences) at 100 μL per well. Anti-ILT7 variants and control antibodies were added onto the cells for 30 min at 4° C. on a plate shaker. Cells were washed three times with PBS and resuspended in Blocking Buffer (100 μL/well). Human IgG binding on cell surface was detected using a secondary anti-human IgG antibody conjugated to DyLight 649 (1 in 1000 dilution). Cells were incubated in the dark for 30 min at 4° C. on a plate shaker. Cells were washed three times with PBS and surface fluorescence was acquired using LSRII Flow Cytometry System and FACSDiva Software (both from BD Biosciences).
(§2) In order to determine the binding EC50 of ILT70019, ILT70028, ILT70052, ILT70076, ILT70080, ILT70083, ILT70089, ILT70100, ILT70137, ILT70142 and ILT70144 on cells expressing human ILT7, the candidates were screened for binding on CT-550 cells by flow cytometry. ILT70080 (EC₅₀=0.28 nM), ILT70083 (EC₅₀=0.37 nM), ILT70137 (EC₅₀=0.41 nM), ILT70144, ILT70142, ILT70052, and ILT70100 bound to human ILT7-expressing cells. […] The anti-ILT7 antibodies 7C7 (7C7 is described above in Example 1) and SBI33 (SBI33 refers to the anti-ILT7 antibody ILT7#33 provided in U.S. Published Application No. 2009/0280128) were used as positive controls.
For orientation: A flow cytometer gives signals particle by particle.

Experiment [3] deals with T3, recombinant human ILT7 protein (human, UniProt P59901 24-446, limits assumed).
T3 construct: Soluble recombinant protein used in ProteOn and BIAcore SPR; also called rILT7; Soluble Recombinant Human ILT7
T3 sequence (P59901 24-446 limits assumed): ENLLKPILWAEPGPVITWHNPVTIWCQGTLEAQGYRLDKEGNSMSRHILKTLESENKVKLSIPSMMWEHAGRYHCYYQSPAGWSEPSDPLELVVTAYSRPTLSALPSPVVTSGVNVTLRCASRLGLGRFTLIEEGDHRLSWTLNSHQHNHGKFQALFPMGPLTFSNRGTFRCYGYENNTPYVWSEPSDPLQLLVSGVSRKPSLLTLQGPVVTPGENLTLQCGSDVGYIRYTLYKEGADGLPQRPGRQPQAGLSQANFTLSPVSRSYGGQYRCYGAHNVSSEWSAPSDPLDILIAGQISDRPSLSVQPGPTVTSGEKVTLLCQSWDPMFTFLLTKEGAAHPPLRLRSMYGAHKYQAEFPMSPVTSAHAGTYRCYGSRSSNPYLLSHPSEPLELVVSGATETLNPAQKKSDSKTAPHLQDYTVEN
Description: SPR on ProteOn, purified IgG on rILT7.

Experiment [4] deals with T4, cynomolgus ILT7 (cynomolgus, UniProt P59901 24-499 (human entry)).
T4 construct: also called cyno ILT7; cynomolgus monkey ILT7
T4 sequence (P59901 other isoform, or with tags, fused parts or gaps limits assumed): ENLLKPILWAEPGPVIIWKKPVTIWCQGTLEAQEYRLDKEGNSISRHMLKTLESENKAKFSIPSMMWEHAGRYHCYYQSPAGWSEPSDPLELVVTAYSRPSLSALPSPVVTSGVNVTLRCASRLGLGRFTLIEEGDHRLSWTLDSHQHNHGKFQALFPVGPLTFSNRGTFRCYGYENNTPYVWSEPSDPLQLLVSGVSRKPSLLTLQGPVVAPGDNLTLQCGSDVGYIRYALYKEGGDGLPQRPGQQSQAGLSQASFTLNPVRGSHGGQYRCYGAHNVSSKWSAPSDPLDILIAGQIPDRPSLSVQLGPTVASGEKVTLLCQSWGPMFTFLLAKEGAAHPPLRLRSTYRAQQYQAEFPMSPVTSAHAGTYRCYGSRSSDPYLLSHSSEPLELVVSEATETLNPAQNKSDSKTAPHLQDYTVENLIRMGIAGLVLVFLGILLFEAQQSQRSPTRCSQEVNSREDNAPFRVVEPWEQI
Description: FACS on CHO cells expressing recombinant cyno ILT7.

Experiment [5] concerns the target T4, cynomolgus ILT7. Description: flow cytometry on CynoILT7 CT-125 cells expressing cynomolgus ILT7, anti-human IgG DyLight 649 detection; table 'Mean Ec50 (nM)', n = 2. The procedure: as §1
(§3) In order to determine the binding EC₅₀ of the variants on cells expressing cynomolgus ILT7, the antibodies were screened for binding on CynoILT7 CT-125 cells by flow cytometry. […] The graph in FIG. 3 represents the mean results from two independent experiments, and the table in FIG. 3 show the average EC₅₀.

Experiment [6] has as its target T2, HA-tagged human ILT7 on CT-550 cells. Description: flow cytometry on CT-550 cells expressing human ILT7, anti-human IgG DyLight 649 detection; mean of two experiments. Here is the method:
as §1
In order to determine the binding EC50 of ILT70019, ILT70028, ILT70052, ILT70076, ILT70080, ILT70083, ILT70089, ILT70100, ILT70137, ILT70142 and ILT70144 on cells expressing human ILT7, the candidates were screened for binding on CT-550 cells by flow cytometry. […]

Experiment [7] has as its target T1, human ILT7. Description: FMAT cell binding assay, CHO-K1 cells expressing human ILT7, IgG. The source says: (§4) This homogeneous assay assessed the binding of crude scFv supernatant samples or purified IgG to Chinese Hamster Ovary (CHO) cells expressing either human or cynomolgus ILT7 in a 384-well (Costar 3655) format. ScFv or Ab binding to cells was detected using a mouse anti-His/goat anti-mouse Alexafluor®-647 labelled antibody (Molecular Probes A21236) mix, or goat anti-human Alexafluor®-647 labelled antibody (Molecular Probes A21445) respectively. Plates were read on the Applied Biosystems Cellular Detection system 8200 reader. The Helium neon excitation laser was focused within 100 μm depth of the bottom of the well, scanning an area 1 mm². The cells settled at the bottom of the well, and upon laser excitation at 633 nm, those beads with fluorophore bound (where the local concentration of fluorophore is relatively high compared to unbound fluorophore) emitted a signal at 650-685 nm that was measured using photomultiplier tube-1 (PMT1). […] The presence of scFv or IgG samples binding to the cells at the bottom of the well caused an increase in Alexafluor-labeled detection antibody within the excitation depth. This was measured as an increase in fluorescence.
(§5) The cells used were CHO-Kl cells expressing either human or cynomolgus ILT7 that were cultured using standard tissue culture techniques. […]
(§6) Species cross-reactivity of anti-ILT7 antibodies was determined using FMAT binding assay. […]

The target in experiment [8] is T4, cynomolgus ILT7. Description: FMAT cell binding assay, CHO-K1 cells expressing cynomolgus ILT7, IgG.
Source text: as §4, §5, §6

Experiment [9] addresses T1, human ILT7. Description: FACS on CHO cells expressing recombinant human ILT7; reference antibody of the comparison.
For experiment [10], the target named is T4, cynomolgus ILT7. Description: FACS on CHO cells expressing recombinant cyno ILT7; reference antibody of the comparison.
Experiment [11] concerns the target T2, HA-tagged human ILT7 on CT-550 cells. Description: cell-based or functional assay.
The target of experiment [12] is T4, cynomolgus ILT7. Description: cell-based or functional assay.
In experiment [13] the target is T4, cynomolgus ILT7. Description: flow cytometry on cynomolgus ILT7-expressing cells, right panel 'Cyno ILT7', table 'Ec50 (nM)'. The procedure:
as §1

Experiment [14] concerns the target T2, HA-tagged human ILT7 on CT-550 cells. Description: flow cytometry on CT-550 cells. The procedure: as §1, §2
For experiment [15], the target named is T4, cynomolgus ILT7. Description: flow cytometry on CynoILT7 CT-125 cells. The procedure: as §1, §3
Experiment [16] deals with T2, HA-tagged human ILT7 on CT-550 cells. Description: flow cytometry on human ILT7-expressing cells, left panel 'Human ILT7', table 'Ec50 (nM)'. Here is the method:
as §1

Experiment [17] deals with T4, cynomolgus ILT7. Description: flow cytometry on cells expressing cynomolgus ILT7 (CT-125 cells). Here is the method:
as §1
The resultant IgG1s were tested to confirm that the sequence changes incorporated into ILT70080 and ILT70083 and had not adversely impacted the binding of the parent antibody to cells expressing human ILT7 (CT-550 cells) or cynomolgus ILT7 (CT-125 cells). The variants were screened for binding by flow cytometry. […]

T1 sequence (P59901 24-499): as the sequence (P59901 24-499) above

B1: 7C7 (antibody, V domains shown)
VH: EVQLVESGGGVVQPGRSLRLSCAASGFTFSIYPIEWVRQAPGQGLEWIGNFHPYNDDTKYNEKFKGRVTMTTDTSTSTVYMELSSLRSEDTAVYYCTRGDDYGLDYWGQGTLVTVSS
VL: NIQMTQSPSSLSASVGDRVTITCDASQNVRTAVAWYQQKPGKAPKRLIYLASNRHTGVPSRFSGSGSGTDFTLTISSLQSEDFATYYCLQHWNYPFTFGPGTKLEIK
notes: also called anti-ILT7 clone 7C7
Consider B1, for which the “fold better EC50 than SBI28ch” value with human ILT7 [1] is 2.2 fold; with cynomolgus ILT7 [4], 14 fold. In addition, the EC50 (in general, the concentration at which the effect is half-maximal) in experiment [2] worked out at 1300 pM; with cynomolgus ILT7 [5], 8340 pM. Further, the “fold KD improvement over SBI28ch” value in experiment [3] was about 60 fold.

B2: ILT70089 (antibody, V domains shown)
VH: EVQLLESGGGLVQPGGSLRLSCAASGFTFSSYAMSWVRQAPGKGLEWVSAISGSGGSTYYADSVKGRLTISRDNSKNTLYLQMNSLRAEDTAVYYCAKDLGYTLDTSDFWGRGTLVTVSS
VL: SYVLTQPPSASGSPGQGVTISCSGSSSNIGTNTVNWYLHVPGTAPKLLTYTNNQRPSGVQDRFSGSKSDTSASLAISGLQAEDEGDYYCATWDDSLNGLAFGGGTKLTVL
With B2, the binding result (in [6]; with human ILT7 [7]; with cynomolgus ILT7 [8]) was “binds” in each case.

B3: SBI28ch (antibody, V domains shown)
VH: QVQLQQSGAELVKPGASVKMSCKAFGYTFTTYPIEWMKQNHGKSLEWIGNFHPYNDDTKYNEKFKGKAKLTVEKSSSTVYLELSRLTSDDSAVYYCARGDDYGMDYWGQGTSVTVSS
VL: DIVMTQSQKFMSTSVGDRVSITCKASQNVRTAVAWYQQKPGQSPKALIYLASNRHTGVPDRFTGSGSGTDFTLTISNVQSEDLADYFCLQHWNYPFTFGSGTKLEIK
notes: also called chimeric SBI28; ILT7#28
Turning to B3, the binding result with human ILT7 [9] and in the experiment with cynomolgus ILT7 [10] was “binds” in each case.

B4: ILT70080 (antibody, V domains shown)
VH: QVQLVQSGAEVKAPGTSVKVSCKASGDSFRNYAVSWVRQAPGQGLEWMGAMMPSFGTREHSQQFNGRVTLSADESTSTAYLELSSLRYDDTAVYYCAGSRDYNAYHFWTGPPDFWGRGTLVTVSS
VL: SYELTQPPSVSVAPGKTAKISCGGDSVGSTSVHWYQQKPGQAPVMVMFYNSDRPSGIPERFSGSISGNTATLTISRVEAGDEADYYCQVWDTSSDHPEFGGGTKLTVL
notes: also called ITL70080
With B4, the “ADCC EC50” value in [11] was 22 pM and 13 pM; in the experiment with cynomolgus ILT7 [12] it was 8 pM and 6 pM. In addition, the concentration giving a half-maximal response (EC50) in the experiment with cynomolgus ILT7 [13] is 410 pM; in experiment [14], 280 pM and 213 pM; with cynomolgus ILT7 [15], 440 pM; in experiment [16], 300 pM; with cynomolgus ILT7 [17] it was 547 pM.
